Source: patent publication US20240092853A1 (Hoffmann-La Roche, published 2024)
Numbering of substitutions follows the chain as printed. In names and notes the source's numbering stands.

Legend:
[1] = target: T1, IL2R(bg)-Fc construct (human IL2R beta extracellular domain fused to Fc(knob) with avi tag, human IL2R gamma … (human, biotin on the C-terminal avi tag (co-expressed BirA))); experiment: ELISA: biotinylated IL2R(bg)-Fc coated on neutravidin plates, clone in bacterial supernatant bound at pH 6, washing and 30 min incubation at pH 6 or pH 7.4, detection with anti-Flag/HRP; absorption at pH 6 set to 1
T1 construct: Knob-into-hole Fc heterodimer; also called IL2Rβγ; human heterodimeric IL-2 receptor beta/gamma
Experimental: FIG. 3. Binding analysis for the first set of selected pH-dependent IL2v variants to IL2Rfβγ at pH 6 and pH 7.4 by ELISA. Bacterial supernatants containing clonal pH-dependent IL2v variants were incubated with previously coated IL2Rfβγ. Prior to the detection by an anti-Flag/HRP secondary antibody, extensive washing for 30 minutes was performed at pH 6 or pH 7.4. The absorption at pH 6 was normalized to a value of 1 and the ratio of absorption levels was compared.
25 μl of 50 nM biotinylated antigen per well were coated at pH 6 on 384-well neutravidin plates and blocked with 2% BSA (50 mM BisTris 140 mM NaCl, 2% BSA, pH 6). Bacterial supernatants containing soluble variants of IL2v were re-buffered to pH 6, added to the plates and incubated for 1 h. Subsequently, several washing steps were performed at either pH 6 or pH 7.4 followed by an incubation step in washing buffer for 30 min at the respective pH. Binding of pH-dependent IL2v variants to the IL2R(bg)-Fc construct was detected via Flag tag by using an anti-Flag/HRP secondary antibody. Comparison of the signal between the two conditions (pH 6 vs pH 7.4) allowed identifying constructs that bind in a pH-dependent manner. The phagemid expressing the parental IL2v construct was used as an internal pH-independent control. […] (FIG. 3), were selected (SEQ ID NOs 5-19) and converted into one-armed (OA) targeted conjugates.

[2] = target: T1, IL2R(bg)-Fc construct (human IL2R beta …); experiment: ELISA: IL2R(bg)-Fc coated ('100nM IL2R coated'), soluble IL2v in bacterial supernatant adjusted to pH 6 or pH 7.4, washing at the same pH, detection with anti-Flag/HRP
Experimental: Bacterial supernatant was harvested by centrifugation and pH was adjusted to either pH 6 or pH 7.4 using Bis-Tris buffer (final concentration: 50 mM BisTris, 140 mM NaCL). Supernatant was incubated in Neutravidin plates that were previously coated with the biotinylated IL2R(bg)-Fc construct and blocked with BSA. While extensive washing after 1 h was performed with Bis-Tris washing buffer at the respective pH 6 or 7.4 (50 mM BisTris, 140 mM NaCL, 0.1% Tween), all subsequent steps were performed at pH 6 to avoid any pH-dependent secondary effects. Binding of IL2v to the IL2R(bg)-Fc construct was detected via Flag tag by using an anti-Flag/HRP secondary antibody.

T1 sequence (chain, as listed by the source limits assumed, chain 1 of 2): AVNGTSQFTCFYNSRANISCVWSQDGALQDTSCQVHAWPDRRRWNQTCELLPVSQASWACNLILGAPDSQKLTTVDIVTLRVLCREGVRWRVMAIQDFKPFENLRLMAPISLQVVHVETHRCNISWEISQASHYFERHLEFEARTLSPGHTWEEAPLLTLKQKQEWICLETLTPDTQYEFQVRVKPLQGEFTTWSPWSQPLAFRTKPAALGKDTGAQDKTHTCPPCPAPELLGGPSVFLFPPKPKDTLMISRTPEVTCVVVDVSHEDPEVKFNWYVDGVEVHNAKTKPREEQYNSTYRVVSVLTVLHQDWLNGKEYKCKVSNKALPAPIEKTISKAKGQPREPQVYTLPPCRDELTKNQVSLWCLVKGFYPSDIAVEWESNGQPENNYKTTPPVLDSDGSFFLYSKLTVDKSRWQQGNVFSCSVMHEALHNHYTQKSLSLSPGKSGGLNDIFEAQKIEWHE
T1 sequence (chain, as listed by the source limits assumed, chain 2 of 2): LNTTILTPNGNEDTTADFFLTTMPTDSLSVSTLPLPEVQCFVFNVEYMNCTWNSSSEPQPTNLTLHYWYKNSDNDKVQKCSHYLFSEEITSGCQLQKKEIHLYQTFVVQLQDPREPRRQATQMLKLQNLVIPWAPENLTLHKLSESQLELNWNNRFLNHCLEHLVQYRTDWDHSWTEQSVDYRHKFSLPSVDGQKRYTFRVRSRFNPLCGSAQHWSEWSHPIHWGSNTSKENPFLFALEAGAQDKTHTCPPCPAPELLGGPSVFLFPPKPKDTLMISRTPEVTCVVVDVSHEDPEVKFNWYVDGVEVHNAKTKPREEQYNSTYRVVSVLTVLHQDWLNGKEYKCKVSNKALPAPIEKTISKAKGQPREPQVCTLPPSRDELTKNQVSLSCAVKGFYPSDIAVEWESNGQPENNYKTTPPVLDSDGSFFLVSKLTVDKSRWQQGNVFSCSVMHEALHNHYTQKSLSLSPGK

B1: ExplResIEE.P026.175 (ligand)
chain: APASSSTKKTELQLEHLLLQLQEILNGINNYKNPKLTRMLTAKFAMPKKATELKHLQCLEEELKPLEEVLNGAQSKNFHLDPRELIENINVIVLELKGSETTFMCEYADETATIVEFLNRWITFAQSIIETLN
notes: as m5; not shown: C-terminal His tag and Flag tag of the phagemid
B1: binds [1].

B2: ExplResIEE.P026.355 (ligand)
chain: B1 chain with L12E, Q20D, E23Q, E84D, V91D, N133Q
notes: as for B1
B2: binds [1].

B3: ExplResIEE.P041.449 (ligand)
chain: B1 chain with E11Q, Q20D, E23M, D81Q, E84D, V91D, R120E, N133D
notes: as for B1
B3: binds [1].

B4: IL2v (soluble, from the phagemid, in bacterial supernatant) (ligand)
chain: B1 chain with E11Q, Q20D, E23M, D81R, E84D, E87S, E130S, N133T
notes: human IL-2 with T3A, F42A, Y45A, L72G, C125A; also called parental IL2v; not shown: C-terminal His tag and Flag tag of the phagemid
B4: binds [2].

B5: ExplResIEE.P041.242 (ligand)
chain: B1 chain with E11Q, L19D, Q20D, E23M, D81E, E84D, E87S, N133D
notes: as for B1
B5: binds [1].

B6: ExplResIEE.P027.359 (ligand)
chain: B1 chain with L19D, Q20D, E23M, E87S, N133D
notes: as for B1
B6: binds [1].

B7: ExplResIEE.P026.191 (ligand)
chain: B1 chain with E11Q, L12E, L19D, Q20D, E23M, E84D, E87S, R120E, T123E, N133E
notes: as for B1
B7: binds [1].

B8: ExplResIEE.P030.006 (ligand)
chain: B1 chain with E11Q, Q20D, E23M, E84Q, E87D, V91N, T123Q, N133D
notes: as for B1
B8: binds [1].

B9: ExplResIEE.P030.045 (ligand)
chain: B1 chain with E11Q, L19D, Q20D, E23M, D81E, E87Q, R120H, N133E
notes: as for B1
B9: binds [1].

B10: ExplResIEE.P041.017 (ligand)
chain: APASSSTKKTEEQLEHLLLDLQQILNGINNYKNPKLTRMLTAKFAMPKKATELKHLQCLEEELKPLEEVLNGAQSKNFHLQPRDLIDNINNIVLQLKGSETTFMCEYADETATIVEFLNHWIEFAQSIIETLE
notes: as for B1
B10: binds [1].

B11: ExplResIEE.P026.237 (ligand)
chain: B10 chain with E11Q, E12L, Q23M, D87E, N91D, Q95E, H120R, E133D
notes: as for B1
B11: binds [1].

B12: ExplResIEE.P031.226 (ligand)
chain: B1 chain with E11Q, L19D, Q20D, E23N, E84D, E87S, E130S, N133E
notes: as for B1
B12: binds [1].

B13: ExplResIEE.P041.554 (ligand)
chain: B10 chain with E11Q, E12Q, L19Q, Q23M, Q81H, D87S, N91E, Q95E, H120R
notes: as for B1
B13: binds [1].

B14: ExplResIEE.P042.107 (ligand)
chain: B1 chain with K8E, E11Q, Q20E, E23N, D81H, E84Q, R120H, N133D
notes: as for B1
B14: binds [1].
